Five molecules from PMC7924230, “Insights into the structure of mature streptavidin C1 from Streptomyces cinnamonensis reveal the self-binding of the extension C-terminal peptide to biotin-binding sites” (IUCrJ, 2021) can be followed below.

One experiment addresses T1, avidin (Gallus gallus, UniProt P02701).
T1 construct: gene AVD; homotetramer
The experiment can be described thus: thermal unfolding, intrinsic fluorescence […] nm (Tycho NT.[…]). The class given is binding. As to conditions: PBS-T, 1 mg/ml protein, 4 mg/ml D-biotin.

For another experiment, the target named is T2, streptavidin C1 (Streptomyces virginiae, UniProt A0ABQ3NKM7).
T2 construct: ORF Met1-Glu191 in pET-21a, E. coli BL21; His-tagged (C1-His); mature N-terminus 34-SADPR-38; homotetramer about 76 kDa
T2 sequence (A0ABQ3NKM7 26-191 limits assumed): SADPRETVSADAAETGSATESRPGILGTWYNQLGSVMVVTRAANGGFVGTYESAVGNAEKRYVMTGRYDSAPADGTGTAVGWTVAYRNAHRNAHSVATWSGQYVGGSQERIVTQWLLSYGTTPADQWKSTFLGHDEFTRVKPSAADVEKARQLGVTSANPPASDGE
As to the kind of experiment: microscale thermophoresis (MST), His-tag-labelled protein. The class given is binding. In general terms: MST reads how a fluorescent partner responds to local heating, with and without ligand.

The target in the next experiment is T3, streptavidin C2 (Streptomyces virginiae, UniProt A0ABQ3NKS0).
T3 construct: gene Scinn_28310; cloned in pET-21a, E. coli BL21; His-tagged (C2-His); homotetramer about 68 kDa
Described as above. The class given is binding. As to conditions: read-out: apparent K d.

Experiment [1] deals with streptavidin C1 from Streptomyces cinnamonensis strain KPP02129, recombinant mature form (Streptomyces cinnamonensis). As to the kind of experiment: SDS-PAGE (oligomer bands); purified protein in 1x SDS sample buffer (1% SDS, with or without β-mercaptoethanol), incubated 20 min at 25-100°C, with or without biotin.
Experiment [2] shares this target. The experiment can be described thus: SEC-MALS; Superdex 200 10/300 GL, 20 mM Tris-HCl pH 8.0, 100 mM NaCl, 2 mM DTT; 1-2 mg/ml, 0.25 ml injected, 0.8 ml/min. Background: Size exclusion chromatography separates by hydrodynamic size, large species first.
In experiment [3] the target is streptavidin C2 from Streptomyces cinnamonensis strain KPP02129, recombinant (Streptomyces cinnamonensis). The experiment can be described thus: SDS-PAGE (oligomer bands); purified protein in 1x SDS sample buffer (1% SDS, with or without β-mercaptoethanol), incubated 20 min at 25-100°C, with or without biotin.
The target is the same in experiment [4]. As to the kind of experiment: SEC-MALS; Superdex 200 10/300 GL, 20 mM Tris-HCl pH 8.0, 100 mM NaCl, 2 mM DTT; 1-2 mg/ml, 0.25 ml injected, 0.8 ml/min.
The target in experiment [5] is C-terminal deletion mutant ΔC1 of streptavidin C1 (amino acids 1-161) (Streptomyces cinnamonensis). The experiment can be described thus: MST; Monolith NT.115; 200 nM His-tag-labelled (RED-tris-NTA) ΔC1-His or ΔC2-His, unlabelled peptide 2.4414-80 000 nM, PBS with 0.05% Tween 20, 10 min at room temperature, measured at 25°C, 40% LED power, 60% MST power, triplicate.
For experiment [6], the target named is C-terminal deletion mutant ΔC2 of streptavidin C1 (amino acids 1-158) (Streptomyces cinnamonensis). Described as above.

What is called stoichiometry N is a count of units in the complex or per binding partner.

T1 sequence (P02701 25-152): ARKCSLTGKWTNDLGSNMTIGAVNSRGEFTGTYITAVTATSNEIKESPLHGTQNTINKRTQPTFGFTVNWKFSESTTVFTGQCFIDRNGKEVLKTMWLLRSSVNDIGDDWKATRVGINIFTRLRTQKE

As to `O=C(O)CCCC[C@@H]1SC[C@@H]2NC(=O)N[C@@H]21` [D-biotin], the T i entry on avidin is “streptavidin (green) and avidin (brown) with or without biotin from differential scanning fluorimetry”. The Kd at streptavidin C1 is around 3.06 pM; on streptavidin C2, 3.06 ± 0.8 pM.

For “streptavidin C1 from Streptomyces cinnamonensis strain KPP02129, recombinant mature form (natural protein)”, the stoichiometry N in experiment [1] and in experiment [2] was 4 throughout.

With “streptavidin C2 from Streptomyces cinnamonensis strain KPP02129, recombinant (natural protein)”, the stoichiometry N in [3] and in experiment [4] was 4 each time.

B1: ECP peptide (extension C-terminal peptide) of streptavidin C1 (peptide)
peptide: LGVTSANPPASDGE
In the case of B1, the Kd in experiment [5] turned out to be 0.049 µM; in [6] it was 0.11 µM.

B2: C-Lid_ECP peptide of streptavidin C1 (peptide)
peptide: SAADVEKARQLGVTSANPPASDGE
As for B2, the Kd came out at 21 µM in experiment [5] and 7.3 µM in experiment [6].
